Experiment [1] has as its target Wild-type recombinant human NGAL dimer expressed in CHO cells (human) (UniProt P80188). Description: … sandwich CMIA, capture HYB 211-01, detection acridinium-HYB 211-02; calibrator E, NGAL 600 ng/mL.
The target of experiment [2] is Wild-type recombinant human NGAL monomer expressed in CHO cells (human) (UniProt P80188). Described as above.
The target in experiment [3] is Wild-type recombinant human NGAL dimer calibrators treated with DTT (human) (UniProt P80188). The experiment is described as above.
In experiment [4] the target is Wild-type recombinant human NGAL dimer expressed in CHO cells (human) (UniProt P80188). Put plainly: … sandwich CMIA, capture HYB 211-01, detection acridinium-HYB 211-02; NGAL 1000 ng/mL.
Experiment [5] concerns the target Wild-type recombinant human NGAL monomer expressed in CHO cells (human) (UniProt P80188). The description is as above.
For experiment [6], the target named is Native NGAL purchased from Diagnostics Development (Uppsala, Sweden), non-reduced (UniProt P80188). The experiment is described as above.
The target in experiment [7] is Wild-type recombinant human NGAL dimer calibrators treated with DTT (human) (UniProt P80188). Described as above.
Experiment [8] has as its target Wild-type recombinant human NGAL monomer expressed in CHO cells (human) (UniProt P80188). Put plainly: … sandwich CMIA, capture HYB 211-01, detection acridinium-HYB 211-02; NGAL 600 ng/mL.
In experiment [9] the target is Native NGAL purchased from Diagnostics Development (Uppsala, Sweden), non-reduced (UniProt P80188). Described as above.
The target of experiment [10] is Wild-type recombinant human NGAL dimer calibrators treated with DTT (human) (UniProt P80188). Described as above.
The target of experiment [11] is Wild-type recombinant human NGAL dimer calibrators with TCEP in the reaction mixture (human) (UniProt P80188). Put plainly: … sandwich CMIA, capture 1-2322-455, detection acridinium-1-903-430; TCEP in reaction; NGAL 1000 ng/mL.
For experiment [12] the target is unchanged. Description: … sandwich CMIA, capture 1-2322-455, detection acridinium-1-903-430; TCEP in reaction; curve fit with monomer calibrators; target 5 ng/mL.
For experiment [13], the target named is Wild-type recombinant human NGAL dimer expressed in CHO cells (human) (UniProt P80188). Description: … sandwich CMIA, capture 1-2322-455, detection acridinium-1-903-430; curve fit with monomer calibrators; target 5 ng/mL.
The target in experiment [14] is Wild-type recombinant human NGAL monomer expressed in CHO cells (human) (UniProt P80188). The experiment is described as above.
Experiment [15] shares this target. Description: … sandwich CMIA, capture 1-2322-455, detection acridinium-1-903-430; monomer calibrator plus TCEP; NGAL 600 ng/mL.
The target in experiment [16] is Wild-type recombinant human NGAL dimer expressed in CHO cells (human) (UniProt P80188). Description: … sandwich CMIA, capture 1-2322-455, detection acridinium-1-903-430; curve fit with monomer calibrators; target 50 ng/mL.
In experiment [17] the target is Wild-type recombinant human NGAL monomer expressed in CHO cells (human) (UniProt P80188). Described as above.
For experiment [18], the target named is Wild-type recombinant human NGAL dimer calibrators with TCEP in the reaction mixture (human) (UniProt P80188). Description: … sandwich CMIA, capture 1-2322-455, detection acridinium-1-903-430; TCEP in reaction; NGAL 600 ng/mL.
Experiment [19] deals with Wild-type recombinant human NGAL dimer expressed in CHO cells (human) (UniProt P80188). Put plainly: … sandwich CMIA, capture 1-2322-455, detection acridinium-1-903-430; NGAL Dimer High, 1500 ng/mL dimer calibrator.
The target of experiment [20] is Wild-type recombinant human NGAL monomer expressed in CHO cells (human) (UniProt P80188). Put plainly: … sandwich CMIA, capture 1-2322-455, detection acridinium-1-903-430; monomer calibrator plus TCEP; curve fit with monomer calibrators; target 1000 ng/mL.
Experiment [21] has as its target Wild-type recombinant human NGAL dimer expressed in CHO cells (human) (UniProt P80188). Put plainly: … sandwich CMIA, capture 1-2322-455, detection acridinium-1-903-430; NGAL Dimer Low, 150 ng/mL dimer calibrator.
Experiment [22] addresses Wild-type recombinant human NGAL monomer expressed in CHO cells (human) (UniProt P80188). Put plainly: … sandwich CMIA, capture 1-2322-455, detection acridinium-1-903-430; monomer calibrator plus TCEP; NGAL 250 ng/mL.
Experiment [23] addresses Wild-type recombinant human NGAL dimer calibrators with TCEP in the reaction mixture (human) (UniProt P80188). Put plainly: … sandwich CMIA, capture 1-2322-455, detection acridinium-1-903-430; TCEP in reaction; curve fit with monomer calibrators; target 600 ng/mL.
For experiment [24], the target named is Wild-type recombinant human NGAL monomer expressed in CHO cells (human) (UniProt P80188). Put plainly: … sandwich CMIA, capture 1-2322-455, detection acridinium-1-903-430; monomer calibrator plus TCEP; curve fit with monomer calibrators; target 250 ng/mL.
The target in experiment [25] is Wild-type recombinant human NGAL dimer calibrators with TCEP in the reaction mixture (human) (UniProt P80188). Put plainly: … sandwich CMIA, capture 1-2322-455, detection acridinium-1-903-430; TCEP in reaction; NGAL 5 ng/mL.

Take “anti-NGAL antibody HYB 211-01 from AntibodyShop A/S, Gentofte, Denmark”: the RLUs in [1] came out at 282000 RLUs; in experiment [2], 691000 RLUs; in experiment [3], 676000 RLUs; in experiment [4], 390000 RLUs; in experiment [5] it was 885000 RLUs; in [6], 1.32e+06 RLUs. For the same molecule, the RLUs in experiment [7] was 855000 RLUs; in experiment [8] it was 691000 RLUs; in experiment [9], 1.07e+06 RLUs; in experiment [10], 676000 RLUs.

B1: antibody produced by murine hybridoma cell line 1-2322-455 having ATCC Accession No. PTA-8024 (antibody, V domains shown)
VH: EVQLVESGGGLVQPGGSLKLSCAASGFTFNNYYMSWVRQTPERRLEWVAYISSSGGSTYYSDSVRGRFTISRDTARNTLYLQMTSLKSEDTAMYYCARHFGDYSYFDYWGQGTTLTVSS
VL: DIQMTQSPASLSASVGETVTITCRASENFYSYLAWYQQKQGKSPQLLVYNAKTLAEGVPSRFSGSGSGTQFSLKINSLQPEDFGTYYCQHHYDIPLTFGAGTKLELKR
With B1, the RLUs in [11] was determined as 1.37e+06 RLUs; in experiment [15] it was 1.53e+06 RLUs; in experiment [18] it was 989000 RLUs; in [22], 928000 RLUs; in experiment [25] it was 15000 RLUs. The Curve Fit Results was 2.2 ng/mL in [12]; 1.2 ng/mL in [13]; 4.7 ng/mL in experiment [14]; 13.5 ng/mL in experiment [16]; 48.2 ng/mL in experiment [17]; 1030 ng/mL in experiment [20]. Also, the Curve Fit Results turned out to be 292 ng/mL in [23] and 266 ng/mL in [24]. The NGAL concentration detected in experiment [19] was 309 ng/mL; in experiment [21], 33.9 ng/mL.
